Laboratory results: PMC2974754 (The Plant journal : for cell and molecular biology, 2010)
“Also recorded” adds a separate entry of the source. Each block holds one molecule with its values, some of them ahead of it. Residues, ends and D or L forms follow the SMILES beside them. No end group written: not given here.

Columns and labels:
[1] = test system: CLV1; conditions: truncated CLV1 LRR domain expressed in tobacco BY-2 cells; ref Ogawa et al. 2008; cited from earlier work
[2] = test system: Arabidopsis plants; conditions: synthetic peptides treating Arabidopsis plants; ref Kinoshita et al. 2007; cited from earlier work
[3] = test system: CLV1; conditions: cold competitor to radiolabeled CLV3 CLE; ref Kondo et al. 2008, Ogawa et al. 2008; cited from earlier work
[4] = stated in peptide description, no test or reference named; cited from earlier work
[5] = molecular target: BAM1-GFP (transient expression in N. benthamiana) (Arabidopsis thaliana) (UniProt O49545); assay: radioligand binding
[6] = molecular target: BAM2-GFP (transient expression in N. benthamiana) (Arabidopsis thaliana) (UniProt Q9M2Z1); assay: radioligand binding
[7] = molecular target: CLV1-GFP (transient expression in N. benthamiana) (Arabidopsis thaliana) (UniProt Q9SYQ8); assay: radioligand binding
[8] = molecular target: CLV2-MYC (transient expression in N. benthamiana) (Arabidopsis thaliana) (UniProt O80809); assay: radioligand binding
[9] = molecular target: T1, CLV1-FLAG (transient expression in N. benthamiana) (Arabidopsis thaliana, UniProt Q9SYQ8 25-980); assay: co-IP
T1 sequence (looked up): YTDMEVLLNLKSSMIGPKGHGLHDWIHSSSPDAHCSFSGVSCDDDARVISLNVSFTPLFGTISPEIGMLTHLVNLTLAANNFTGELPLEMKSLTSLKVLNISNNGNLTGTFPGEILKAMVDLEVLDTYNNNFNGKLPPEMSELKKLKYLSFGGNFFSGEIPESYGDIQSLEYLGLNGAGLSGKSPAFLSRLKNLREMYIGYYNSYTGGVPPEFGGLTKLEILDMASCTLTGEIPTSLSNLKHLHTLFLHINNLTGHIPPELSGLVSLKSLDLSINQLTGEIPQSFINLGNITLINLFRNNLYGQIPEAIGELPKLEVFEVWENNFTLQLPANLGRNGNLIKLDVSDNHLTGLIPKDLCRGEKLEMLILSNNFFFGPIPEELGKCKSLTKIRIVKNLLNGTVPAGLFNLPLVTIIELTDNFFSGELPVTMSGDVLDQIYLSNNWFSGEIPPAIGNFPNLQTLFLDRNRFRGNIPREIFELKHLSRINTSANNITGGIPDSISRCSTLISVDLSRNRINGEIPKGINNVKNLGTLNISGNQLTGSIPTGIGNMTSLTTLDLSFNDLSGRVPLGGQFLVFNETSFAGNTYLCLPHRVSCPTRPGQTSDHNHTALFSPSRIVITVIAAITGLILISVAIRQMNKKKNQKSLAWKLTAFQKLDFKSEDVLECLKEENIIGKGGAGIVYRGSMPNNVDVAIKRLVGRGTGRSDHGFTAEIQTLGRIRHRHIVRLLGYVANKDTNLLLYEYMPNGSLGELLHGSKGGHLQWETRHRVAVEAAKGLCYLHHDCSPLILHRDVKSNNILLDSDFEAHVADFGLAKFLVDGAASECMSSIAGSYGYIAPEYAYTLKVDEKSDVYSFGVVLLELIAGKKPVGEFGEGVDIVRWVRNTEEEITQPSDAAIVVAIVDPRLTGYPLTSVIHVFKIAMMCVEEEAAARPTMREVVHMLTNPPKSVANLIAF

[10] = molecular target: T2, CRN-GFP (transient expression in N. benthamiana) (Arabidopsis thaliana, UniProt Q9LYU7 34-401); assay: co-IP
T2 sequence (looked up): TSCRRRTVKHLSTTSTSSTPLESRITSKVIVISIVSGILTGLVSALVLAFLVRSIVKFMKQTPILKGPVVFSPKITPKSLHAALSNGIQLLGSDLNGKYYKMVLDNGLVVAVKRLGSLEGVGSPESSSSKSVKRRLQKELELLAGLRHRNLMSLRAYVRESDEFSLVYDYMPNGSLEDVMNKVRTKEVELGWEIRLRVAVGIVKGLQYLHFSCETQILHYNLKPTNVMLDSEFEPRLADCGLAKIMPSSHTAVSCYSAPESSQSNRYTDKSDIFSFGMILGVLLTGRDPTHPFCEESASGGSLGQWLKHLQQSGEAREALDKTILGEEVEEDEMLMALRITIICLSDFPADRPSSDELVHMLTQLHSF

[11] = molecular target: T3, CLV1-GFP (transient expression in N. benthamiana) (Arabidopsis thaliana, UniProt Q9SYQ8 25-980); assay: co-IP
T3 sequence (looked up): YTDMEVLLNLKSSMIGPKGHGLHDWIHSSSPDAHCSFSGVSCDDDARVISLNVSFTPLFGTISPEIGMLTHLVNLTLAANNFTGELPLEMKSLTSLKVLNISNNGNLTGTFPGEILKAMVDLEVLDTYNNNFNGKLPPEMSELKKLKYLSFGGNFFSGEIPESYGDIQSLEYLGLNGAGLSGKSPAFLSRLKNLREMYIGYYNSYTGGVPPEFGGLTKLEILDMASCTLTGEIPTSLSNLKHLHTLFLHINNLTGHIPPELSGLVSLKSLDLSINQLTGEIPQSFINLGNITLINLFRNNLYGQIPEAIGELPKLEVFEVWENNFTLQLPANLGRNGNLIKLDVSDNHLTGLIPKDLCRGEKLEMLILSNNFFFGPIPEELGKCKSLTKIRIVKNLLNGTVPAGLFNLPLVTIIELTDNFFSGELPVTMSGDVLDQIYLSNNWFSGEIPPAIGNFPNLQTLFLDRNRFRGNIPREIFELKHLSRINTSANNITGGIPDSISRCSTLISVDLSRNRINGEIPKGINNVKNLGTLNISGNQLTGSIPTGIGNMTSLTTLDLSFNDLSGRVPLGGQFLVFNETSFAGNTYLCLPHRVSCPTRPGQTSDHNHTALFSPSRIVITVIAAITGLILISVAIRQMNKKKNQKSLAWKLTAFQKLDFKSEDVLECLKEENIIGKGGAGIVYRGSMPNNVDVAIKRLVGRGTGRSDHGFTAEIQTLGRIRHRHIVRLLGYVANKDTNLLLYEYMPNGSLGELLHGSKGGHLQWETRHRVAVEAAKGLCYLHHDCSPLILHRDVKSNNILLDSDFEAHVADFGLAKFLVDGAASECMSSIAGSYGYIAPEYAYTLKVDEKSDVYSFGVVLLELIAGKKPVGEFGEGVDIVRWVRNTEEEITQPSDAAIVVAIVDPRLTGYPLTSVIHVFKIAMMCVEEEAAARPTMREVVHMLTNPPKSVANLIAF

Chain of BAM1-GFP (transient expression in N. benthamiana) (Arabidopsis thaliana) (O49545 20-1003): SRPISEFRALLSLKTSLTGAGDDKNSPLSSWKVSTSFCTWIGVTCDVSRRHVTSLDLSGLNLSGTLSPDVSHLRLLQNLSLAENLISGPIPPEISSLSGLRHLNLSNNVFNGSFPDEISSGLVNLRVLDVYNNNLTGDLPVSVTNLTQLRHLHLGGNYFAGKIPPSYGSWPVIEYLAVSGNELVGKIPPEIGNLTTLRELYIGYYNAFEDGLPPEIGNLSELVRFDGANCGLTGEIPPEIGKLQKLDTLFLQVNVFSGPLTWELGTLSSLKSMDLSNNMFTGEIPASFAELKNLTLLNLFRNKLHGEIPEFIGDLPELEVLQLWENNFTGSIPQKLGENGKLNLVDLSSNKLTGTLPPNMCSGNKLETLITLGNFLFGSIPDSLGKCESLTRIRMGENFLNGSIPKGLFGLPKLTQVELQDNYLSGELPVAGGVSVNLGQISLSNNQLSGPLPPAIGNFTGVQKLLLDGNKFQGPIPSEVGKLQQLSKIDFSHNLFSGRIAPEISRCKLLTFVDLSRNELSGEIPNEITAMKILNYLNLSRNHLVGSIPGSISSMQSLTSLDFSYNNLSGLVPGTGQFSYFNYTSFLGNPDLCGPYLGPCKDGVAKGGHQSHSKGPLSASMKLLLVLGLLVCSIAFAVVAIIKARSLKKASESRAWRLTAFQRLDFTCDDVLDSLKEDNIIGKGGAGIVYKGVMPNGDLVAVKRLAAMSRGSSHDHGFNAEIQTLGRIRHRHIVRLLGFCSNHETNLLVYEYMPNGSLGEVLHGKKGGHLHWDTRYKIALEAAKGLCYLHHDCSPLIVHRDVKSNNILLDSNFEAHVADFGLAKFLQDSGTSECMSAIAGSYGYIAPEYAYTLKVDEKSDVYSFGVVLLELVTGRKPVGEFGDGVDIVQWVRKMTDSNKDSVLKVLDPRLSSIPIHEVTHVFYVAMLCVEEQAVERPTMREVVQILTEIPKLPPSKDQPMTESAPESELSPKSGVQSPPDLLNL

Molecule: CC(C)C[C@H](NC(=O)[C@@H]1CCCN1C(=O)[C@H](CC(=O)O)NC(=O)[C@@H]1CCCN1C(=O)CNC(=O)[C@H](CO)NC(=O)[C@@H]1CCCN1C(=O)[C@@H](NC(=O)[C@@H](NC(=O)[C@@H](N)CCCNC(=N)N)[C@@H](C)O)C(C)C)C(=O)N[C@@H](Cc1c[nH]cn1)C(=O)N[C@@H](Cc1c[nH]cn1)C(=O)O [CLV3 CLE] (H-RTVPSGPDPLHH-OH)
binding to CLV1 (LRR / extracellular domain) [1]: bind to the truncated CLV1 LRR domain; also recorded: binds to the CLV3 CLE peptide through its extracellular domain

Molecule: CLE25: CLE peptide (RKVPNGPDPIHN; ends and bridges not checked; UniProt Q8LFL4 58-69, looked up)
effect on size of the SAM [2]: caused reduced size of the SAM

Molecule: CLV3S: CLV3S (Thr71-His81) which only contains a portion of the CLE domain and is nonfunctional (TVPSGPDPLHH; ends and bridges not checked)
competition of CLV3S at CLV1, previously reported [3]: unable to compete
functionality of the peptide [4]: nonfunctional

Kd [5]: 26 nM
Kd [6]: 36 nM
Kd [7]: 30 nM
Kd [8]: 32 nM
Molecule: 125I-radiolabeled CLV3 CLE peptide

Molecule: CLV3L: CLV3L (Arg70-Pro96) which includes the full CLV3 CLE domain plus the extended C-terminal tail and is partially functional (RTVPSGPDPLHHHVNPPRQPRNNFQLP; ends and bridges not checked; UniProt Q9XF04 70-96, looked up, fragment)
functionality of the peptide [4]: partially functional

percent co-immunoprecipitated [9]: 2.5%
percent co-immunoprecipitated [10]: ~20%
B1: CLV2-MYC (transient expression in N. benthamiana) (receptor, Arabidopsis thaliana, UniProt O80809 26-720, looked up)
chain: QLPDLDPQDKASLLIFRVSIHDLNRSLSTWYGSSCSNWTGLACQNPTGKVLSLTLSGLNLSSQIHPSLCKLSSLQSLDLSHNNFSGNIPSCFGSLRNLRTLNLSRNRFVGSIPATFVSLKELREVVLSENRDLGGVVPHWFGNFSMNLERVDFSFCSFVGELPESLLYLKSLKYLNLESNNMTGTLRDFQQPLVVLNLASNQFSGTLPCFYASRPSLSILNIAENSLVGGLPSCLGSLKELSHLNLSFNGFNYEISPRLMFSEKLVMLDLSHNGFSGRLPSRISETTEKLGLVLLDLSHNSFSGDIPLRITELKSLQALRLSHNLLTGDIPARIGNLTYLQVIDLSHNALTGSIPLNIVGCFQLLALMISNNNLSGEIQPELDALDSLKILDISNNHISGEIPLTLAGLKSLEIVDISSNNLSGNLNEAITKWSNLKYLSLARNKFSGTLPSWLFKFDKIQMIDYSSNRFSWFIPDDNLNSTRFKDFQTGGGEGFAEPPGKVEIKISAAVVAKDELSFSYNLLSMVGIDLSDNLLHGEIPEALFRQKNIEYLNLSYNFLEGQLPRLEKLPRLKALDLSHNSLSGQVIGNISAPPGLTLLNLSHNCFSGIITEKEGLGKFPGALAGNPELCVETPGSKCDPANIDASQEEIYQNELVEGPISIWIFCLSAFISFDFGVLGIFCSARARSYILQTKA

percent co-immunoprecipitated [11]: 10%
B2: BAM2-FLAG (transient expression in N. benthamiana) (receptor, Arabidopsis thaliana, UniProt Q9M2Z1 23-1002, looked up)
chain: KPITELHALLSLKSSFTIDEHSPLLTSWNLSTTFCSWTGVTCDVSLRHVTSLDLSGLNLSGTLSSDVAHLPLLQNLSLAANQISGPIPPQISNLYELRHLNLSNNVFNGSFPDELSSGLVNLRVLDLYNNNLTGDLPVSLTNLTQLRHLHLGGNYFSGKIPATYGTWPVLEYLAVSGNELTGKIPPEIGNLTTLRELYIGYYNAFENGLPPEIGNLSELVRFDAANCGLTGEIPPEIGKLQKLDTLFLQVNAFTGTITQELGLISSLKSMDLSNNMFTGEIPTSFSQLKNLTLLNLFRNKLYGAIPEFIGEMPELEVLQLWENNFTGSIPQKLGENGRLVILDLSSNKLTGTLPPNMCSGNRLMTLITLGNFLFGSIPDSLGKCESLTRIRMGENFLNGSIPKELFGLPKLSQVELQDNYLTGELPISGGGVSGDLGQISLSNNQLSGSLPAAIGNLSGVQKLLLDGNKFSGSIPPEIGRLQQLSKLDFSHNLFSGRIAPEISRCKLLTFVDLSRNELSGDIPNELTGMKILNYLNLSRNHLVGSIPVTIASMQSLTSVDFSYNNLSGLVPSTGQFSYFNYTSFVGNSHLCGPYLGPCGKGTHQSHVKPLSATTKLLLVLGLLFCSMVFAIVAIIKARSLRNASEAKAWRLTAFQRLDFTCDDVLDSLKEDNIIGKGGAGIVYKGTMPKGDLVAVKRLATMSHGSSHDHGFNAEIQTLGRIRHRHIVRLLGFCSNHETNLLVYEYMPNGSLGEVLHGKKGGHLHWNTRYKIALEAAKGLCYLHHDCSPLIVHRDVKSNNILLDSNFEAHVADFGLAKFLQDSGTSECMSAIAGSYGYIAPEYAYTLKVDEKSDVYSFGVVLLELITGKKPVGEFGDGVDIVQWVRSMTDSNKDCVLKVIDLRLSSVPVHEVTHVFYVALLCVEEQAVERPTMREVVQILTEIPKIPLSKQQAAESDVTEKAPAINESSPDSGSPPDLLSN
